Some results are limits rather than exact numbers.

The target of the experiment is SARS-CoV-2 WT Spike (SARS-CoV-2, UniProt P0DTC2 14-1208). Briefly: BLI. (In general: Biolayer interferometry detects binding as a change in optical thickness at a sensor tip.)

B1: REGN10933 (antibody, V domains shown)
VH: QVQLVESGGGLVKPGGSLRLSCAASGFTFSDYYMSWIRQAPGKGLEWVSYITYSGSTIYYADSVKGRFTISRDNAKSSLYLQMNSLRAEDTAVYYCARDRGTTMVPFDYWGQGTLVTVSS
VL: DIQMTQSPSSLSASVGDRVTITCQASQDITNYLNWYQQKPGKAPKLLIYAASNLETGVPSRFSGSGSGTDFTFTISGLQPEDIATYYCQQYDNLPLTFGGGTKVEIKR
B1 displayed a Kd of less than 0.01 nM.

B2: REGN10987 (antibody, V domains shown)
VH: QVQLVESGGGVVQPGRSLRLSCAASGFTFSNYAMYWVRQAPGKGLEWVAVISYDGSNKYYADSVKGRFTISRDNSKNTLYLQMNSLRTEDTAVYYCASGSDYGDYLLVYWGQGTLVTVSS
VL: QSALTQPASVSGSPGQSITISCTGTSSDVGGYNYVSWYQQHPGKAPKLMIYDVSKRPSGVSNRFSGSKSGNTASLTISGLQSEDEADYYCNSLTSISTWVFGGGTKLTVLR
The molecule B2 registered a Kd of less than 0.01 nM.

Broadly, the Kd is the concentration at which binding is half-saturated. A higher Kd goes with a looser complex.
